The source of these data is patent publication US20030148343.

This data set has as its system RSG1.2 peptide (synthetic). Briefly: FP. To be noted: about fifty fold greater RNA concentration than RRE1 required for similar polarization; 150 mM KCl, 5 mM MgCl2.

“GGCUGGUAUGGGCGCAGCGUCAAUGACGCUGCGCCCAGGCCAGCC [RRE2 hairpin]” showed a fold-higher RNA concentration than RRE1 for similar polarization of 50 fold.
